In article PMC4520572:

Target: soluble neuronal SNARE complex (unlabeled) (UniProt P32851)
Sequence (P32851 1-265 S249C/K253C, chain 1 of 3): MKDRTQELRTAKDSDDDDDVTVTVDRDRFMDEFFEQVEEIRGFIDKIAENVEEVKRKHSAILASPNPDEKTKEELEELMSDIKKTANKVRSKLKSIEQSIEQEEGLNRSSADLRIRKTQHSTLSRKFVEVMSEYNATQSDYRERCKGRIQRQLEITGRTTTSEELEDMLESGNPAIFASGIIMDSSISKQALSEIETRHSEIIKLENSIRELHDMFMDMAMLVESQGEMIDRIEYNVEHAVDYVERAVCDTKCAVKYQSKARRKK
Sequence (P60881 other isoform, or with tags, fused parts or gaps, chain 2 of 3, further chain): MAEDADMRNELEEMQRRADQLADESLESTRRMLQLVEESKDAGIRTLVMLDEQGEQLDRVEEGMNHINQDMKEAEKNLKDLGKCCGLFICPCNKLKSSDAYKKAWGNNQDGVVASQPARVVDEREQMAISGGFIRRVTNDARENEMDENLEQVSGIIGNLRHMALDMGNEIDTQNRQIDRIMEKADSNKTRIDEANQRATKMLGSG
Sequence (P63045 1-96, chain 3 of 3, further chain): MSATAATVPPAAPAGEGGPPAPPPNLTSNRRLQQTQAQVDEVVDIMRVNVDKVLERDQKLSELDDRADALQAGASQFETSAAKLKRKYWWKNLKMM

Chain of N-Ethylmaleimide-sensitive factor (NSF) (P18708 whole entry): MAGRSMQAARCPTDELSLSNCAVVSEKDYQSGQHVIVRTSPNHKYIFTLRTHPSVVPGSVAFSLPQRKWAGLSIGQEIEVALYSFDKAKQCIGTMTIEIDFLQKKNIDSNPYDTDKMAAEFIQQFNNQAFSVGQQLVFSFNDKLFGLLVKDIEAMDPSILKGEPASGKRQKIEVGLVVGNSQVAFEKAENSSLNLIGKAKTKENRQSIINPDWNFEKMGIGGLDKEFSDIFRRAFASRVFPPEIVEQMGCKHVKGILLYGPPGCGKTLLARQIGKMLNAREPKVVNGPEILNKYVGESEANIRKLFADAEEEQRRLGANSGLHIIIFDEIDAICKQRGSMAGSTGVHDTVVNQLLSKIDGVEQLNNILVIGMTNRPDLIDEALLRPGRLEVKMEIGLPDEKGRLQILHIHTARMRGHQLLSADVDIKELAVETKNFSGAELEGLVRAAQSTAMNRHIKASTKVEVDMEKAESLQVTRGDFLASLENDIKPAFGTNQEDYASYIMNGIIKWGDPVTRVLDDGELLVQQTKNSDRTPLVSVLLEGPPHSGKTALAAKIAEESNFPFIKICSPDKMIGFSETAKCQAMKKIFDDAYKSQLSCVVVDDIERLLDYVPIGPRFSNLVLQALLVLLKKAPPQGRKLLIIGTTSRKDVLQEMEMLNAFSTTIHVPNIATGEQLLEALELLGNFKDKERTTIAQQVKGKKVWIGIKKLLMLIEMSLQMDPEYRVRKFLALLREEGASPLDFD
Chain of α-soluble NSF attachment protein (α-SNAP) (P54921 whole entry): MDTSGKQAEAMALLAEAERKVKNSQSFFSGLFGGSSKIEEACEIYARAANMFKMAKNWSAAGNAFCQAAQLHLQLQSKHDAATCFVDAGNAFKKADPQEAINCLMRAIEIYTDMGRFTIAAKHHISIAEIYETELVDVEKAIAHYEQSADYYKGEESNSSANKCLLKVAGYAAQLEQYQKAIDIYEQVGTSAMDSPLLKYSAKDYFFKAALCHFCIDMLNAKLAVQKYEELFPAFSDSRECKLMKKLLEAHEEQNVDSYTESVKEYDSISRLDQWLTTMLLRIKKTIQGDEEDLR

| Substance | SNARE-dependent activation of the ATPase activity of NSF (coupled ATPase assay, 37 °C; activation was dependent on α-SNAP) [fold] | SNARE-dependent activation of the ATPase activity of NSF (coupled ATPase assay, 37 °C, with α-SNAP, KCl and NaCl omitted) [fold] |
| --- | --- | --- |
| α-soluble NSF attachment protein (α-SNAP) (from UniProt P54921 1-295) (natural protein) | 26 |  |
| N-Ethylmaleimide-sensitive factor (NSF) (from UniProt P18708 1-744) (enzyme) |  | 26 |
